Experimental data published in patent publication US20160108128A1 (CANCER RESEARCH TECHNOLOGY, published 2016).

Assays:
[1] = molecular target: T1, murine Jagged 1, full length, on B16F10 cells (mouse, UniProt Q9QXX0 34-1218); experiment: FACS, B16F10-mJAG1 cells, anti-human-APC
T1 construct: whole, on cells; GFP co-expressed; also called mJ1; B16F10-mJAG1
Method: FIG. 19. […] Samples were analysed by FACS and the mean fluorescence intensities (MFI) were plotted.
(§1) HEK293 cells transfected with human J1, J2 or FLAG-EGFP-tagged DSL-EGF3 constructs, B16F10 cells transfected with human DLL4 or mouse J1, and human cancer cell lines, were stained with either purified anti-J1 antibodies at 10 μg/ml diluted in FACS wash buffer (2% FBS in PBS+0.1% sodium azide) or neat hybridoma supernatants followed by a allophycocyanin (APC)-conjugated secondary antibody at 1:200 dilution: for murine primary antibodies, used goat anti-mouse-APC (eBioscience); for humanised and chimeric antibodies used goat anti-human IgG (H+L) secondary antibody (Jackson ImmunoResearch Laboratories). After washing, samples were fixed with 1% paraformaldehyde (in PBS) and acquired with a FACSCalibur. FACS data were analysed with FlowJo software (TreeStar Inc.).

[2] = molecular target: T2, J1 DSL-EGF3 soluble recombinant protein (human Jagged 1 amino acids 185-335) (human, UniProt P78504 185-335); experiment: affinity to the immunogen J1-DE3; method not stated
T2 construct: biotinylated in the CD46 ELISA; also called J1-DE3; DSL+EGF1-3

[3] = molecular target: T3, human Jagged 2, full length, on HEK293 cells (human, UniProt Q9Y219 24-1238); experiment: FACS, 293-JAG2 cells, anti-human-APC
T3 construct: whole, on cells; also called J2; hJ2
Method: FIG. 18. […] Samples were analysed by FACS and the mean fluorescence intensities (MFI) were plotted. […] With the exception of J1-65D variants 13-16, all the remaining antibodies effectively bound the human J1 protein.
as §1

T2 sequence (P78504 185-335, form in doubt): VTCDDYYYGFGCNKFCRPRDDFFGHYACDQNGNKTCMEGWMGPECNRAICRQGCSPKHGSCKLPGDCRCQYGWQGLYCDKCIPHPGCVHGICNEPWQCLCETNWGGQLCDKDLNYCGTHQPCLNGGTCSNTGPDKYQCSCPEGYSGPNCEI
T3 sequence (Q9Y219 24-1238): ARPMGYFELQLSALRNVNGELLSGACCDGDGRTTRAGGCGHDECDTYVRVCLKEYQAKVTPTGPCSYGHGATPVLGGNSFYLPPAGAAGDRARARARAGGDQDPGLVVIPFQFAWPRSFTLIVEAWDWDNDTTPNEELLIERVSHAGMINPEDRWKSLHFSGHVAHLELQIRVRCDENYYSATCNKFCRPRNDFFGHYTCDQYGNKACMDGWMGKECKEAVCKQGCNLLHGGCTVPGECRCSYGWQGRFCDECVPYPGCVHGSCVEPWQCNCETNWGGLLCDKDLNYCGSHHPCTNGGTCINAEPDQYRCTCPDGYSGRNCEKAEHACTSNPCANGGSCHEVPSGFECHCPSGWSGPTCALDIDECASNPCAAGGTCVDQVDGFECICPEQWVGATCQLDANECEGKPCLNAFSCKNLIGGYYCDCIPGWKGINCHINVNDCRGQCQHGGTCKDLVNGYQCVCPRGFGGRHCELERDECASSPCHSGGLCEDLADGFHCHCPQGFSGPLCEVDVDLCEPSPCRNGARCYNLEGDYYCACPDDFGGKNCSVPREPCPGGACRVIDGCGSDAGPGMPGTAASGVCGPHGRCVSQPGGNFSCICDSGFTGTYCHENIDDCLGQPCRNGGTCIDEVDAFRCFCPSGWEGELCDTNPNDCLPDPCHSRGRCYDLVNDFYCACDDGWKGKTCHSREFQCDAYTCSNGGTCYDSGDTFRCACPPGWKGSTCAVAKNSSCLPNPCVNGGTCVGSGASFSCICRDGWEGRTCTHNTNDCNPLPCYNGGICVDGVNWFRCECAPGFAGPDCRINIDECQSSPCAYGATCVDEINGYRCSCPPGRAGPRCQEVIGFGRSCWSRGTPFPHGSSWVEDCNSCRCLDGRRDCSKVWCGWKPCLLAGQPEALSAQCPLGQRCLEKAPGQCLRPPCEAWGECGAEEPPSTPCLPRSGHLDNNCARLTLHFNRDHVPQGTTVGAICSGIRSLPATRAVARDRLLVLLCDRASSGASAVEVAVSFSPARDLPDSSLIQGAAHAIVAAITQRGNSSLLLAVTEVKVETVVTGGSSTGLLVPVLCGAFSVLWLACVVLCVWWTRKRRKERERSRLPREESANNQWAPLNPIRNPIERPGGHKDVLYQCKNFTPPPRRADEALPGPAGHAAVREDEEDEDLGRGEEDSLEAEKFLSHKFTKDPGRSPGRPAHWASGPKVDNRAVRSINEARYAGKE
T1 sequence (Q9QXX0 34-1218, one chain of several): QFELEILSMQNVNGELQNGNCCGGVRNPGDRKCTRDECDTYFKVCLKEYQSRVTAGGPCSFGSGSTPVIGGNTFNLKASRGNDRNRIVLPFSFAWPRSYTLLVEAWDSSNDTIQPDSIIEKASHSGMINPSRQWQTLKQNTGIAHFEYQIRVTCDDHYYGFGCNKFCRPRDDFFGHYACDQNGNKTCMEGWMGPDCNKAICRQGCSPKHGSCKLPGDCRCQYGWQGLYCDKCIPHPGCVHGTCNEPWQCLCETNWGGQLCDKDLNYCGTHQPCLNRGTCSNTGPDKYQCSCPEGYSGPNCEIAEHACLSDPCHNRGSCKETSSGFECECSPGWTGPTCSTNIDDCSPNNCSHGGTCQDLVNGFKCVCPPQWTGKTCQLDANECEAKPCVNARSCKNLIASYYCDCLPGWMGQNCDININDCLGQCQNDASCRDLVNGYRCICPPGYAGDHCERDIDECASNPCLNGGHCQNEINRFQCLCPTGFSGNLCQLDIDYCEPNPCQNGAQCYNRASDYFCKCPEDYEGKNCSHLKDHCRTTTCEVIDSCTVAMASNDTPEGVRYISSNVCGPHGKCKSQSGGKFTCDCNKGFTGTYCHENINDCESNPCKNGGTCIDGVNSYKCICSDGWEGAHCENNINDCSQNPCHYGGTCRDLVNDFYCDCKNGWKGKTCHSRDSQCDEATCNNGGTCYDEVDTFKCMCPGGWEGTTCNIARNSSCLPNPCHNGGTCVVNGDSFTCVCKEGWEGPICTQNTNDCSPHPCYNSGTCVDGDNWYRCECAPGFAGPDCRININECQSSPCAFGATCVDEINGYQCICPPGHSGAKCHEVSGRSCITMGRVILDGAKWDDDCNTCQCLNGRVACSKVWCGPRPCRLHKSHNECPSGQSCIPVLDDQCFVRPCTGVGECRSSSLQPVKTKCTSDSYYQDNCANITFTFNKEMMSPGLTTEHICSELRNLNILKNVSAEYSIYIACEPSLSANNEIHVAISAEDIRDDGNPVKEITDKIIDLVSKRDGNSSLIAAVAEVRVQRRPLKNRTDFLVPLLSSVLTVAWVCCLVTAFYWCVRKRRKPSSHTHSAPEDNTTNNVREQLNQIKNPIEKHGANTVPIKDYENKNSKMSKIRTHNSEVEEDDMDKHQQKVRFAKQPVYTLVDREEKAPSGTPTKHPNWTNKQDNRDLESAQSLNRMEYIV

| Binder | binding result [1] | Kd [2] [nM] | binding result [3] |
| --- | --- | --- | --- |
| J1-65D variant 14 (antibody, human IgG1, V domains shown, human IgG1; also called J1-65DV14; V14) VH: QVQLVQSGAELKKPGSSVKVSCKASGYTFTDYEMHWVRQAPGQGLEWMGAIQPGGGGTAYAQKFKGRVTLTADKSTSTAYMELSSLRSEDTAVYYCTRRGYDDYPFAYWGQGTLVTVSS VL: DIQMTQSPSSLSASVGDRVTITCRASQGIHNYLAWYQQKPGKAPKLLIYNAKTLADAVPSRFSGSGSGTDYTLTISSLQPEDFATYYCQQFWSAPWTFGQGTKLEIK | no binding (tested: 10 ug/ml) | 58.3 | no binding (tested: 10 ug/ml) |
| J1-65D variant 13 (antibody, human IgG1, V domains shown, human IgG1; also called J1-65DV13; V13) VH: QVQLVQSGAELKKPGSSVKVSCKASGYTFTDYEMHWVRQAPGQGLEWMGAIQPGGGGTAYNQKFKGRVTLTADKSTSTAYMELSSLRSEDTAVYYCTRRGYDDYPFAYWGQGTLVTVSS VL: DIQMTQSPSSLSASVGDRVTITCRASQGIHNYLAWYQQKPGKAPKLLIYNAKTLADAVPSRFSGSGSGTDYTLTISSLQPEDFATYYCQQFWSAPWTFGQGTKLEIK | no binding (tested: 10 ug/ml) | 14.2 | no binding (tested: 10 ug/ml) |
| J1-65D variant 16 (antibody, human IgG1, V domains shown, human IgG1; also called J1-65DV16; V16) VH: QVQLVQSGAEVKKPGSSVKVSCKASGYTFTDYEMHWVRQAPGQGLEWMGAIQPGGGGTAYAQKFQGRVTITADKSTSTAYMELSSLRSEDTAVYYCTRRGYDDYPFAYWGQGTLVTVSS VL: DIQMTQSPSSLSASVGDRVTITCRASQGIHNYLAWYQQKPGKAPKLLIYNAKTLADAVPSRFSGSGSGTDYTLTISSLQPEDFATYYCQQFWSAPWTFGQGTKLEIK | no binding (tested: 10 ug/ml) | 52.1 | no binding (tested: 10 ug/ml) |
| J1-65D variant 15 (antibody, human IgG1, V domains shown, human IgG1; also called J1-65DV15; V15) VH: QVQLVQSGAEVKKPGSSVKVSCKASGYTFTDYEMHWVRQAPGQGLEWMGAIQPGGGGTAYAQKFQGRVTLTADKSTSTAYMELSSLRSEDTAVYYCTRRGYDDYPFAYWGQGTLVTVSS VL: DIQMTQSPSSLSASVGDRVTITCRASQGIHNYLAWYQQKPGKAPKLLIYNAKTLADAVPSRFSGSGSGTDYTLTISSLQPEDFATYYCQQFWSAPWTFGQGTKLEIK | no binding (tested: 10 ug/ml) | 39.8 | no binding (tested: 10 ug/ml) |
| J1-65D chimeric (antibody, human IgG1, V domains shown, chimeric antibody with unaltered CDRs; vectors encode human IgG1) VH: QVQLQQPGAELVRPGASVKLSCKALGYTFTDYEMHWVKETPVHGLEWIGAIQPGGGGTAYNQKFKGKATLTADKSSSTAYMELSSLTSEDSAVYYCTRRGYDDYPFAYWGQGTLVTVSS VL: DIQLTQSPASLSASVGETVTITCRASGNIHNYLAWYQQKQGKSPQLLVYNAKTLADDIPSRFSGSGSGTQYSLKINSLQPEDFGSYYCQHFWSAPWTFGGGTKLEIK | no binding (tested: 10 ug/ml) | – | no binding (tested: 10 ug/ml) |
| J1-183D variant 10 (antibody, human IgG1, V domains shown, human IgG1; also called J1-183DV10; V10) VH: QVQLVQSGAELKKPGASVKVSCKVSGYAFTDYAIHWIRQAPGQGLEWMGIINTYYGDSKYAQKFQGRVTMTVDTSTSTAYMELSSLRSEDTAVYYCARGYDGFAYWGQGTLVTVSS VL: DIQMTQSPSSLSASVGDRVTITCRTSENIYSYLTWYQQKPGKAPKLLIYNAKILDSGVPSRFSGSGSGTDFTLTISSLQPEDFATYYCQHHYDIPWTFGGGTKLEIKR | no binding (tested: 10 ug/ml) | 1.77 | no binding (tested: 10 ug/ml) |
| J1-183D variant 2 (antibody, human IgG1, V domains shown, human IgG1; also called J1-183DV2; V2) VH: QVQLVQSGAELKKPGASVKVSCKVSGYAFTDYAIHWIRQAPGQGLEWMGIINTYYGDSKYAQKFQGRVTMTVDTSTSTAYMELSSLRSEDTAVYYCARGYDGFAYWGQGTLVTVSS VL: DIQMTQSPSSLSASVGDRVTITCRTSENIYSYLTWYQQKPGKAPKLLVYNAKILAAGVPSRFSGSGSGTDFTLTISSLQPEDFATYYCQHHYDIPWTFGGGTKLEIKR | no binding (tested: 10 ug/ml) | 2.19 | no binding (tested: 10 ug/ml) |
| J1-183D variant 5 (antibody, human IgG1, V domains shown, human IgG1; also called J1-183DV5; V5) VH: QVQLVQSGAELKKPGASVKVSCKVSGYAFTDYAIHWIRQAPGQGLEWMGIINTYYGDSKYNQKFKDRVTMTVDKSTSTAYMELSSLRSEDTAVYYCARGYDGFAYWGQGTLVTVSS VL: DIQMTQSPSSLSASVGDRVTITCRTSENIYSYLTWYQQKPGKAPKLLIYNAKTLASGVPSRFSGSGSGTDFTLTISSLQPEDFATYYCQHHYDIPWTFGGGTKLEIKR | no binding (tested: 10 ug/ml) | 2.75 | no binding (tested: 10 ug/ml) |
| J1-183D variant 6 (antibody, human IgG1, V domains shown, human IgG1; also called J1-183DV6; V6) VH: QVQLVQSGAELKKPGASVKVSCKVSGYAFTDYAIHWIRQAPGQGLEWMGIINTYYGDSKYAQKFQGRVTMTVDTSTSTAYMELSSLRSEDTAVYYCARGYDGFAYWGQGTLVTVSS VL: DIQMTQSPSSLSASVGDRVTITCRTSENIYSYLTWYQQKPGKAPKLLIYNAKTLASGVPSRFSGSGSGTDFTLTISSLQPEDFATYYCQHHYDIPWTFGGGTKLEIKR | no binding (tested: 10 ug/ml) | 1.39 | no binding (tested: 10 ug/ml) |
| J1-183D variant 8 (antibody, human IgG1, V domains shown, human IgG1; also called J1-183DV8; V8) VH: QVQLVQSGAEVKKPGASVKVSCKASGYTFTDYAIHWVRQAPGQGLEWMGIINTYYGDSKYAQKFQGRVTMTVDTSTSTAYMELSSLRSEDTAVYYCARGYDGFAYWGQGTLVTVSS VL: DIQMTQSPSSLSASVGDRVTITCRTSENIYSYLTWYQQKPGKAPKLLIYNAKTLASGVPSRFSGSGSGTDFTLTISSLQPEDFATYYCQHHYDIPWTFGGGTKLEIKR | no binding (tested: 10 ug/ml) | 1.48 | no binding (tested: 10 ug/ml) |
| J1-183D variant 9 (antibody, human IgG1, V domains shown, human IgG1; also called J1-183DV9; V9) VH: QVQLVQSGAELKKPGASVKVSCKVSGYAFTDYAIHWIRQAPGQGLEWMGIINTYYGDSKYNQKFKDRVTMTVDKSTSTAYMELSSLRSEDTAVYYCARGYDGFAYWGQGTLVTVSS VL: DIQMTQSPSSLSASVGDRVTITCRTSENIYSYLTWYQQKPGKAPKLLIYNAKILDSGVPSRFSGSGSGTDFTLTISSLQPEDFATYYCQHHYDIPWTFGGGTKLEIKR | no binding (tested: 10 ug/ml) | 0.68 | no binding (tested: 10 ug/ml) |
| J1-183D variant 4 (antibody, human IgG1, V domains shown, human IgG1; also called J1-183DV4; V4) VH: QVQLVQSGAEVKKPGASVKVSCKASGYTFTDYAIHWVRQAPGQGLEWMGIINTYYGDSKYAQKFQGRVTMTVDTSTSTAYMELSSLRSEDTAVYYCARGYDGFAYWGQGTLVTVSS VL: DIQMTQSPSSLSASVGDRVTITCRTSENIYSYLTWYQQKPGKAPKLLVYNAKILAAGVPSRFSGSGSGTDFTLTISSLQPEDFATYYCQHHYDIPWTFGGGTKLEIKR | no binding (tested: 10 ug/ml) | 2.76 | no binding (tested: 10 ug/ml) |
| J1-183D variant 1 (antibody, human IgG1, V domains shown, human IgG1; also called J1-183DV1; V1) VH: QVQLVQSGAELKKPGASVKVSCKVSGYAFTDYAIHWIRQAPGQGLEWMGIINTYYGDSKYNQKFKDRVTMTVDKSTSTAYMELSSLRSEDTAVYYCARGYDGFAYWGQGTLVTVSS VL: DIQMTQSPSSLSASVGDRVTITCRTSENIYSYLTWYQQKPGKAPKLLVYNAKILAAGVPSRFSGSGSGTDFTLTISSLQPEDFATYYCQHHYDIPWTFGGGTKLEIKR | no binding (tested: 10 ug/ml) | 0.77 | no binding (tested: 10 ug/ml) |
| J1-183D variant 3 (antibody, human IgG1, V domains shown, human IgG1; also called J1-183DV3; V3) VH: QVQLVQSGAELKKPGASVKVSCKVSGYAFTDYAIHWVRQAPGQGLEWMGIINTYYGDSKYAQKFQGRVTMTVDTSTSTAYMELSSLRSEDTAVYYCARGYDGFAYWGQGTLVTVSS VL: DIQMTQSPSSLSASVGDRVTITCRTSENIYSYLTWYQQKPGKAPKLLVYNAKILAAGVPSRFSGSGSGTDFTLTISSLQPEDFATYYCQHHYDIPWTFGGGTKLEIKR | no binding (tested: 10 ug/ml) | 2.55 | no binding (tested: 10 ug/ml) |
| J1-183D variant 7 (antibody, human IgG1, V domains shown, human IgG1; also called J1-183DV7; V7) VH: QVQLVQSGAELKKPGASVKVSCKVSGYAFTDYAIHWVRQAPGQGLEWMGIINTYYGDSKYAQKFQGRVTMTVDTSTSTAYMELSSLRSEDTAVYYCARGYDGFAYWGQGTLVTVSS VL: DIQMTQSPSSLSASVGDRVTITCRTSENIYSYLTWYQQKPGKAPKLLIYNAKTLASGVPSRFSGSGSGTDFTLTISSLQPEDFATYYCQHHYDIPWTFGGGTKLEIKR | no binding (tested: 10 ug/ml) | 1.26 | no binding (tested: 10 ug/ml) |
| J1-183D chimeric (antibody, human IgG1, V domains shown, chimeric antibody with unaltered CDRs; vectors encode human IgG1) VH: QVQLQQPGTELVRPGVSVKISCKVSGYAFTDYAIHWIMQSHAKSLEWIGIINTYYGDSKYNQKFKDKATMTVDKSSNTAYMELARLTSEDSAIYYCARGYDGFAYWGQGTLVTVSS VL: DIQLTQSPASLSASVGETVTFTCRTSENIYSYLTWYQQKQGKSPQLLVYNAKILAAGVPSRFSGYGSGTQFSLKINSLQPEDFGTYYCQHHYDIPWTFGGGTKLEIK | no binding (tested: 10 ug/ml) | – | no binding (tested: 10 ug/ml) |
